Data from patent US9403882B2, “Sulfation of Wnt pathway proteins” (priority 2010, dated 2016).
No end group written: not given here. *: point of attachment. sulfate = O=S(=O)(O)*

Assays:
[1] = target: T1, sclerostin-LRP binding (Homo sapiens, UniProt O75197); experiment: Sclerostin binding to LRP in the presence of peptides; settings: 667 μM peptide concentration; FIG. 12
T1 construct: expresses LRP5 extracellular domains 1 and 2 fused to alkaline phosphatase; made in house; host or cells: LRP5R1/2-AP from transfected 293T cells (conditioned medium)
T1 sequence (O75197 32-641 limits assumed): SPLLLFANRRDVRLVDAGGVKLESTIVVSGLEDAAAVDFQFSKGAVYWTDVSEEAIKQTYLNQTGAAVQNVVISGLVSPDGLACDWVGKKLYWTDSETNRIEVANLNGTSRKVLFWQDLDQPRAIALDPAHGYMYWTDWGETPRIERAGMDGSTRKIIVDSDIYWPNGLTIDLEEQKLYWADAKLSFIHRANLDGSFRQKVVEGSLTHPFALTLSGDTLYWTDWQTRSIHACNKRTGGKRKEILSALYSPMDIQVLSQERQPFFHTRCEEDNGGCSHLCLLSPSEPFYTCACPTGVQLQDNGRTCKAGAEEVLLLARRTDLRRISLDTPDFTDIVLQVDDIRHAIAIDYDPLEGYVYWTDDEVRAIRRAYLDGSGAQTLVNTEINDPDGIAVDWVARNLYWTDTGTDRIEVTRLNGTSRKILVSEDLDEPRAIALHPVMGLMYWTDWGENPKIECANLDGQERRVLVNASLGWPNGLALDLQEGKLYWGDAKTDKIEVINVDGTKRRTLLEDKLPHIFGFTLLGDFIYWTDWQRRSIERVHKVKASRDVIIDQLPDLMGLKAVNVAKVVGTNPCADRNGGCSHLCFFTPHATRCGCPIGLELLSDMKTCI
Description: Various amounts of unmodified sclerostin or the in vitro treated sclerostin from Example 1 were diluted into 80 μl of TBST buffer and added to individual wells of 96 well plates. After overnight incubation, unbound proteins were removed after which point the coated plates were blocked with 3% nonfat milk in PBS. The plates were than decanted and 0.5×LRP5R1/2AP conditioned medium was added to the plates. After 2.5 hours, the conditioned medium was removed and the 96 well plates were washed five times for three minutes with TBST. The alkaline phosphatase activity in each well was then determined using the Tropix luminescence assay kit (Invitrogen, Carlsbad, Calif.).
Sclerostin binding to LRP in the presence or absence of the sulfated or unsulfated peptides, at 667 μM peptide concentration, was tested using the binding assay essentially as described in Example 3.

[2] = test system: Wnt induced alkaline phosphatase activity; experiment: Wnt 3a induced alkaline phosphatase activity in 10T1/2 cells; format: cell-based; settings: 24 hours, vs untreated sclerostin, highest level of sclerostin input, FIG. 3
Description: Growing cultures of 10T1/2 cells were washed with PBS and trypsinized for 5 minutes. Cells were resuspended at a concentration of 6×10^5 cells/ml and 10 μl were seeded into individual wells of a Costar 96 well plate (Corning, Inc.). Wnt 3a and either the untreated sclerostin or the sclerostin from Example 1 were added and the plates were incubated at 37° C. for 24 hours. 50 μl of universal lysis buffer (from the Luciferase Reporter Gene Assay, Roche Applied Science, Indianapolis, Ind.) was added to each well at ambient temperature for 5 minutes. Detection of alkaline phosphatase was measured by the addition of 50 μl of ready-to-use CPSD with Sapphire Enhancer (Applied Biosystems) followed by an incubation at ambient temperature for 25 minutes.

[3] = target: T2, LRP5 extracellular domains 1 and 2 fused to alkaline phosphatase (Homo sapiens, UniProt O75197); experiment: Binding of AlkPhos-LRP5 to plate-coated sclerostin; settings: TPST-1-treated vs untreated recombinant sclerostin; FIG. 2
T2 construct: expresses LRP5 extracellular domains 1 and 2 fused to alkaline phosphatase; made in house; host or cells: 293T cells, transfected; concentrated conditioned medium
T2 sequence (O75197 32-641 limits assumed): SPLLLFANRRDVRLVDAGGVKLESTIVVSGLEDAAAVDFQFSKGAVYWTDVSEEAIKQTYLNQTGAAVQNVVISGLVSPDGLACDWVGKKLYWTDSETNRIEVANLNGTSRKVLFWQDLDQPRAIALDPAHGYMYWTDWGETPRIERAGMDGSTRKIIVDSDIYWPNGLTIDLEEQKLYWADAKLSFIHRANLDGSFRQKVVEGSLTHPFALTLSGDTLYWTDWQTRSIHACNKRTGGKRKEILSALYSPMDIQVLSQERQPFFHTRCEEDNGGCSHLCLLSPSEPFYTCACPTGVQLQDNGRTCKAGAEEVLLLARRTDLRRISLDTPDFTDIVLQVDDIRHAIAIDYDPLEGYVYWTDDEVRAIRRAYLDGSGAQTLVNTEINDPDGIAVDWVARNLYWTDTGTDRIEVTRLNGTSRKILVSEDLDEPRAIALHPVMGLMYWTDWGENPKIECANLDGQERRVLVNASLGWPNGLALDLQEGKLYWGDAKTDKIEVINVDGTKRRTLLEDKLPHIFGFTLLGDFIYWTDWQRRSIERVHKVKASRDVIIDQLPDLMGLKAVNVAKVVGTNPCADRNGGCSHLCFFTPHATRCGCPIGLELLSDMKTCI

[4] = test system: Wnt signaling; experiment: Cell-based luciferase assay using Wnt reporter cells (Dkk1 inhibition of Wnt signaling); settings: Dkk1 from insect cells untreated (sulfated) vs chlorate treated (unsulfated); FIG. 10
Description: These four Dkk1 preparations were used at three concentrations in a cell-based luciferase assay using the Wnt reporter cells essentially as described in U.S. Patent Publication 2006/0198791 to determine the effect of sulfation on the ability of Dkk1 to inhibit Wnt signaling. Briefly, the cells were seeded in 96-well microtiter plates at 2×10^5 cells per well, in 50 μl assay medium. After incubation at 37° C. in a 5% CO2 atmosphere overnight, 50 μl DMEM was added to each well. Wnt3a was then added, to a final concentration of 300 ng/ml, followed by addition of either buffer, sulfated Dkk1 or unsulfated Dkk1, where Dkk1 was added to a final concentration of 0.4, 0.133 or 0.044 μg/ml. The plates were then incubated at 37° C. in a 5% CO2 atmosphere for 6 h. Luciferase substrate was then added and chemiluminescence was measured. Each treatment was performed in duplicate.

In the case of “H-C-R-S-A-K-A-N-Q-A-E-L-E-N-A-Y-OH (H-HCRSAKANQAELENAY-OH) [PRN8831]”, the “inhibition of sclerostin-LRP binding” value [1] is reported as “inhibition of sclerostin-LRP binding”.

In the case of “sclerostin treated in vitro with TPST: human sclerostin (R&D Systems) sulfated in vitro with human TPST1 and PAPS”, the “blockage of Wnt induced alkaline phosphatase activity” value [2] is reported as “significantly (P=0.006) more efficient blockage of Wnt induced alkaline phosphate activity”.

For “H-P-E-L-G-E-Y-P-E-P-P-P-E-L-E-C-NH2 (H-HPELGEYPEPPPELEC-NH2) [PRN8829]”, the “inhibition of sclerostin-LRP binding” value [1] was “inhibition of sclerostin-LRP binding”.

“mouse versions of sclerostin: mouse sclerostin, TPST-treated compared with untreated” was tested, and the “amount of AlkPhos-LRP5 bound to the plates” value [3] was “essentially similar results”.

For “PRN8830: sulfated P43, sequence of sclerostin amino acids 37-52 where 43 is the sulfation site (HPELGEY(sulfate)PEPPPELEC-NH2)”, the “inhibition of sclerostin-LRP binding” value [1] was “inhibition of sclerostin-LRP binding”.

B1: sulfated Dkk1: Dkk1 prepared in insect cells untreated with chlorate (protein, UniProt O94907 32-266, looked up)
Dickkopf-related protein 1: TLNSVLNSNAIKNLPPPLGGAAGHPGSAVSAAPGILYPGGNKYQTIDNYQPYPCAEDEECGTDEYCASPTRGGDAGVQICLACRKRRKRCMRHAMCCPGNYCKNGICVSSDQNHFRGEIEETITESFGNDHSTLDGYSRRTTLSSKMYHTKGQEGSVCLRSSDCASGLCCARHFWSKICKPVLKEGQVCTKHRRKGSHGLEIFQRCYCGEGLSCRIQKDHHQASNSSRLHTCQRH
modifications: sulfated, insect cell-expressed
notes: Dkk1 prepared in insect cells untreated with chlorate
In the case of B1, the “inhibition of Wnt activity” value [4] is reported as “greater inhibition of Wnt activity”.
